The data set concerns Escherichia coli TOP10. Briefly: shrunken log2 fold change of peptide-encoding DNA abundance (4.5 h post-induction vs induction); higher = less antimicrobial activity (less host growth inhibition). The settings on record: time post-induction: 4.5 h; library: site-saturation at positions 5, 18, 19, 20.
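Note: peptides expressed intracellularly from a pBAD plasmid library in pooled LB shake-flask culture, induced with 0.3% L-arabinose, DNA abundance read by NGS, three biological replicates, DESeq2 with apeglm shrinkage.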

Regarding RRIRFRPPRLPRPRPRPRQNPRP, the “shrunken log2 fold change” value is 0.353.
Take RRIRDRPPRLPRPRPRPEALPRP: the “shrunken log2 fold change” value turned out to be 1.21.
Regarding RRIRQRPPRLPRPRPRPVVPPRP, the “shrunken log2 fold change” value was -0.0392.
Regarding RRIRYRPPRLPRPRPRPAYKPRP, the “shrunken log2 fold change” value was -0.14.
In the case of RRIRFRPPRLPRPRPRPKPIPRP, the “shrunken log2 fold change” value was 0.0634.
RRIRLRPPRLPRPRPRPHCFPRP: the “shrunken log2 fold change” value is -0.0782.
As to RRIRARPPRLPRPRPRPTQHPRP, the “shrunken log2 fold change” value was found to be 0.698.
On to RRIRRRPPRLPRPRPRPPPPPRP, for which the “shrunken log2 fold change” value came out at 1.03.
Turning to RRIRIRPPRLPRPRPRPGFLPRP, the “shrunken log2 fold change” value is -0.328.
RRIRARPPRLPRPRPRPYFCPRP: the “shrunken log2 fold change” value is -0.346.
Take RRIRHRPPRLPRPRPRPHLPPRP: the “shrunken log2 fold change” value was -0.0497.
For RRIRKRPPRLPRPRPRPAQYPRP, the “shrunken log2 fold change” value was -0.141.
Turning to RRIRTRPPRLPRPRPRPSWCPRP, the “shrunken log2 fold change” value is -0.322.
With RRIRERPPRLPRPRPRPVLNPRP, the “shrunken log2 fold change” value is -0.54.
In the case of RRIRERPPRLPRPRPRPMGHPRP, the “shrunken log2 fold change” value was -0.298.
In the case of RRIRPRPPRLPRPRPRPVLDPRP, the “shrunken log2 fold change” value was -0.304.
For the sequence RRIRYRPPRLPRPRPRPCPYPRP, the “shrunken log2 fold change” value was -0.0107.
With RRIRFRPPRLPRPRPRPMAIPRP, the “shrunken log2 fold change” value was -0.226.
As for RRIRGRPPRLPRPRPRPFYGPRP, the “shrunken log2 fold change” value was -0.0443.
For RRIRFRPPRLPRPRPRPGRVPRP, the “shrunken log2 fold change” value is 0.787.
As for RRIRHRPPRLPRPRPRPAHLPRP, the “shrunken log2 fold change” value turned out to be 0.0167.
With RRIRWRPPRLPRPRPRPRAYPRP the figure was 0.224; with RRIRHRPPRLPRPRPRPAYHPRP, -0.274.
For RRIRTRPPRLPRPRPRPDDQPRP, the “shrunken log2 fold change” value is -0.052.
Next, RRIRCRPPRLPRPRPRPSIVPRP: -0.965; RRIRRRPPRLPRPRPRPFARPRP: 0.217; RRIRERPPRLPRPRPRPAGAPRP: 0.464.
Take RRIRGRPPRLPRPRPRPRCRPRP: the “shrunken log2 fold change” value turned out to be 0.957.
Turning to RRIRERPPRLPRPRPRPLCAPRP, the “shrunken log2 fold change” value is -0.0485.
With RRIRLRPPRLPRPRPRPIMWPRP the figure was -0.0155.
With RRIRKRPPRLPRPRPRPMKMPRP the figure was 0.473; with RRIRGRPPRLPRPRPRPHCNPRP, 0.427; with RRIRPRPPRLPRPRPRPRKRPRP, 0.198.
In the case of RRIRWRPPRLPRPRPRPEAYPRP, the “shrunken log2 fold change” value is 0.212.
As to RRIRNRPPRLPRPRPRPMSVPRP, the “shrunken log2 fold change” value is 0.0774.
RRIRIRPPRLPRPRPRPIMMPRP: the “shrunken log2 fold change” value is -0.132.
Regarding RRIRQRPPRLPRPRPRPHIIPRP, the “shrunken log2 fold change” value is -0.362.
Turning to RRIRHRPPRLPRPRPRPGSPPRP, the “shrunken log2 fold change” value is -0.171.
For the sequence RRIRYRPPRLPRPRPRPHQMPRP, the “shrunken log2 fold change” value was -0.0207.
Next, RRIRERPPRLPRPRPRPPLQPRP: -0.176; RRIRTRPPRLPRPRPRPFVVPRP: -0.266; RRIRFRPPRLPRPRPRPIDYPRP: -0.155.
In the case of RRIRPRPPRLPRPRPRPWFVPRP, the “shrunken log2 fold change” value was -0.25.
RRIRTRPPRLPRPRPRPRRRPRP: the “shrunken log2 fold change” value was 0.411.
On to RRIRCRPPRLPRPRPRPATCPRP, for which the “shrunken log2 fold change” value is -0.0745.
Take RRIRCRPPRLPRPRPRPATGPRP: the “shrunken log2 fold change” value is 0.201.
In the case of RRIRSRPPRLPRPRPRPSWTPRP, the “shrunken log2 fold change” value is -0.299.
For RRIRCRPPRLPRPRPRPAYAPRP, the “shrunken log2 fold change” value came to 0.00565.
Turning to RRIRERPPRLPRPRPRPQGFPRP, the “shrunken log2 fold change” value is -0.144.
Take RRIRFRPPRLPRPRPRPCFYPRP: the “shrunken log2 fold change” value is -0.394.
In the case of RRIRIRPPRLPRPRPRPGAYPRP, the “shrunken log2 fold change” value is -0.33.
With RRIRVRPPRLPRPRPRPVSQPRP, the “shrunken log2 fold change” value is 0.051.
In the case of RRIRIRPPRLPRPRPRPWCAPRP, the “shrunken log2 fold change” value is -0.377.
As for RRIRYRPPRLPRPRPRPTVDPRP, the “shrunken log2 fold change” value amounted to 0.0546.
RRIRHRPPRLPRPRPRPERQPRP: the “shrunken log2 fold change” value is -0.0882.
As to RRIRKRPPRLPRPRPRPMKIPRP, the “shrunken log2 fold change” value stood at 0.291.
For the sequence RRIRIRPPRLPRPRPRPNIAPRP, the “shrunken log2 fold change” value was -0.407.
In the case of RRIRFRPPRLPRPRPRPHPQPRP, the “shrunken log2 fold change” value stood at 0.246.
Next, RRIRTRPPRLPRPRPRPLMRPRP: 0.216; RRIRDRPPRLPRPRPRPIRVPRP: -0.185; RRIRKRPPRLPRPRPRPTYYPRP: -0.442.
With RRIRGRPPRLPRPRPRPTRIPRP the figure was 0.901; with RRIRNRPPRLPRPRPRPHVIPRP, -0.205; with RRIRERPPRLPRPRPRPIRYPRP, -0.00369.
For RRIRYRPPRLPRPRPRPEQNPRP, the “shrunken log2 fold change” value stood at 0.00317.
As for RRIRLRPPRLPRPRPRPEWMPRP, the “shrunken log2 fold change” value was -0.00172.
For the sequence RRIRDRPPRLPRPRPRPHYFPRP, the “shrunken log2 fold change” value is -0.119.
As to RRIRYRPPRLPRPRPRPEDPPRP, the “shrunken log2 fold change” value is -0.0591.
With RRIRQRPPRLPRPRPRPGCHPRP, the “shrunken log2 fold change” value is -0.11.
Consider RRIRFRPPRLPRPRPRPYNQPRP, for which the “shrunken log2 fold change” value was -0.881.
On to RRIRIRPPRLPRPRPRPDCFPRP, for which the “shrunken log2 fold change” value was -0.211.
For RRIRIRPPRLPRPRPRPKIWPRP, the “shrunken log2 fold change” value is 0.145.
With RRIRRRPPRLPRPRPRPLTTPRP, the “shrunken log2 fold change” value was found to be 0.311.
With RRIRRRPPRLPRPRPRPWPTPRP the figure was 0.0393; with RRIRGRPPRLPRPRPRPLSEPRP, 0.52.
Next, RRIRPRPPRLPRPRPRPINWPRP: -0.241; RRIRQRPPRLPRPRPRPVEFPRP: 0.0188.
With RRIRWRPPRLPRPRPRPQKEPRP, the “shrunken log2 fold change” value came to 0.0282.
For the sequence RRIRSRPPRLPRPRPRPLAFPRP, the “shrunken log2 fold change” value was -0.0837.
For RRIRKRPPRLPRPRPRPHQEPRP, the “shrunken log2 fold change” value was found to be 0.0459.
Consider RRIRHRPPRLPRPRPRPHVSPRP, for which the “shrunken log2 fold change” value was -0.0122.
With RRIRYRPPRLPRPRPRPIIGPRP the figure was -0.178; with RRIRGRPPRLPRPRPRPKFNPRP, 0.353; with RRIRDRPPRLPRPRPRPCQWPRP, -0.134.
With RRIRTRPPRLPRPRPRPTHKPRP, the “shrunken log2 fold change” value is -0.0156.
Consider RRIRWRPPRLPRPRPRPHQIPRP, for which the “shrunken log2 fold change” value is -0.154.
As for RRIRYRPPRLPRPRPRPQRWPRP, the “shrunken log2 fold change” value was -0.13.
Regarding RRIRSRPPRLPRPRPRPTPPPRP, the “shrunken log2 fold change” value worked out at 0.43.
With RRIRIRPPRLPRPRPRPVNPPRP the figure was 1.75; with RRIRFRPPRLPRPRPRPSLFPRP, -0.291.
Next, RRIRARPPRLPRPRPRPHNQPRP: -0.00392; RRIRLRPPRLPRPRPRPRMFPRP: -0.0408; RRIRIRPPRLPRPRPRPQHMPRP: -0.94.
With RRIRDRPPRLPRPRPRPVTLPRP, the “shrunken log2 fold change” value was -0.283.
For the sequence RRIRCRPPRLPRPRPRPRCCPRP, the “shrunken log2 fold change” value was -0.245.
For the sequence RRIRFRPPRLPRPRPRPIRNPRP, the “shrunken log2 fold change” value was -0.0537.
With RRIRKRPPRLPRPRPRPVTLPRP the figure was 0.163; with RRIRRRPPRLPRPRPRPKSEPRP, 0.0316; with RRIRDRPPRLPRPRPRPAFHPRP, -0.193.
As to RRIRCRPPRLPRPRPRPTYQPRP, the “shrunken log2 fold change” value was -0.346.
Consider RRIRHRPPRLPRPRPRPKYFPRP, for which the “shrunken log2 fold change” value is -0.0202.
As to RRIRRRPPRLPRPRPRPKWVPRP, the “shrunken log2 fold change” value worked out at 0.242.
Next, RRIRPRPPRLPRPRPRPWHTPRP: -0.087; RRIRPRPPRLPRPRPRPGLNPRP: 0.0174.
On to RRIRFRPPRLPRPRPRPQPMPRP, for which the “shrunken log2 fold change” value came out at 0.302.
With RRIRLRPPRLPRPRPRPVQIPRP, the “shrunken log2 fold change” value turned out to be 0.364.
Turning to RRIRDRPPRLPRPRPRPSHSPRP, the “shrunken log2 fold change” value was -0.127.
RRIRARPPRLPRPRPRPSERPRP: the “shrunken log2 fold change” value is -0.132.
As to RRIRVRPPRLPRPRPRPNQGPRP, the “shrunken log2 fold change” value is -0.129.
With RRIRQRPPRLPRPRPRPINRPRP the figure was -0.341; with RRIRDRPPRLPRPRPRPSNVPRP, -0.0805; with RRIRARPPRLPRPRPRPPGTPRP, 0.898.
Turning to RRIRMRPPRLPRPRPRPDFPPRP, the “shrunken log2 fold change” value was -0.0976.
With RRIRIRPPRLPRPRPRPWACPRP, the “shrunken log2 fold change” value was -0.406.
Next, RRIRTRPPRLPRPRPRPQPPPRP: 0.357; RRIRTRPPRLPRPRPRPGDMPRP: 1.73.
RRIRDRPPRLPRPRPRPWPTPRP: the “shrunken log2 fold change” value worked out at 0.104.
RRIRKRPPRLPRPRPRPSPWPRP: the “shrunken log2 fold change” value worked out at 0.141.
With RRIRLRPPRLPRPRPRPSIHPRP the figure was -0.619; with RRIRRRPPRLPRPRPRPTDMPRP, -0.0645.
RRIRYRPPRLPRPRPRPRNGPRP: the “shrunken log2 fold change” value is 0.0466.
Next, RRIRCRPPRLPRPRPRPCPPPRP: -0.0764.
As for RRIRPRPPRLPRPRPRPPAVPRP, the “shrunken log2 fold change” value was determined as 0.37.
With RRIRFRPPRLPRPRPRPVMTPRP the figure was -0.218; with RRIRQRPPRLPRPRPRPLSGPRP, -0.252.

For the origin of these results see the supplement of paper PMC9112550, “Optimization of the antimicrobial peptide Bac7 by deep mutational scanning” (BMC Biology, 2022).
